# According to patent publication US20060024786:
# Test system: full length human N-WASP (Myc-N-WASP-TAP)
substance,measurement,value
N_GST_tev_Rac1 GTP (bacterial GST tagged Rac1 protein),"activation of FL N-WASP (barbed ends, actin polymerization assay)",Rac1 can activate FL N-WASP
same,activation of FL N-WASP against Cdc42,Rac1 was a more potent N-WASP activator than Cdc42 in the absence of PIP2 vesicles
same,dose dependence of barbed end concentration,"there is a bell shaped dose dependence for Nck1, Nck2 and Rac1"
